According to patent US20260250410A1 (SICHUAN HUIYU PHARMACEUTICAL, published 2026):
Where a chain is given by its changes, count along the chain named.

T1: human CDCP1 on tumor cells (human, UniProt Q9H5V8 30-836)
T1 construct: whole, on cells; cell line is named under assay or readout
T1 sequence (looked up): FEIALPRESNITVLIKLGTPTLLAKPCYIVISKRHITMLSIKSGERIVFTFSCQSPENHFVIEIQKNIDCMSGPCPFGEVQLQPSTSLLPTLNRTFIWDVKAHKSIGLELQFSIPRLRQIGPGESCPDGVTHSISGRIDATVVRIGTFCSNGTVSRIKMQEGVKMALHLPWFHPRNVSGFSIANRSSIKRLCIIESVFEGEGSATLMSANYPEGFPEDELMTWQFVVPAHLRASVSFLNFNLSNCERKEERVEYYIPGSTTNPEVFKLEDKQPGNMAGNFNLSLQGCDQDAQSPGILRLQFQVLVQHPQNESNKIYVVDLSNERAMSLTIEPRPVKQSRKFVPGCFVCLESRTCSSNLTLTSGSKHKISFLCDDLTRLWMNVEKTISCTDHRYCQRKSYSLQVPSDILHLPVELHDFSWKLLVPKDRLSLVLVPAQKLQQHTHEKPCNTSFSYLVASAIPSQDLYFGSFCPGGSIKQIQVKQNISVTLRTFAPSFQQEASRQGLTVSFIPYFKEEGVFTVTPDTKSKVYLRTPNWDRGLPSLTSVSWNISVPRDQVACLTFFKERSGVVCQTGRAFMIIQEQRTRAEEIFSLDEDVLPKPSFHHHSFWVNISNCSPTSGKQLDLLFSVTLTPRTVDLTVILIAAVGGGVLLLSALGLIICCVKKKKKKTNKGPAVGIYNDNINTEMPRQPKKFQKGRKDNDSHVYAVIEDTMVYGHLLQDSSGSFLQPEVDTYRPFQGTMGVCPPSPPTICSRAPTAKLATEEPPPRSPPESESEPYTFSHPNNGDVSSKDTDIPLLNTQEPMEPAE

B1: 1CP-152 (antibody, human IgG1, kappa, V domains shown)
VH: EVQLVESGGGLVQPGRSLRLSCTTSGLTFTHYHMSWVRQAPGKGLEWVAIIRNKAYGYTTDYSASVRGRFTISRDDSKSILYLQMNSLKTEDTAVYYCVREGGYGYDGTFAYWGQGTLVTVSS
VL: DIQMTQSPSSLSASVGDRVTITCRASESVDNYGISFMNWFQQKPGQAPKLLIYAASNQGSGVPSRFSGSGSGTDFTLTISSMQPEDFATYYCQQSKEVPRTFGGGTKVEIKR
notes: humanized 8C9, human IgG1 kappa
B2: 1CP-157 (antibody, human IgG1, kappa, V domains shown)
VH: B1 VH with L45P
VL: B1 VL with A47P
notes: as for B1
B3: 1CP-124 (antibody, human IgG1, kappa, V domains shown)
VH: QVQLVQSGAEVKKPGASVKVSCKASGYNFISYWLHWVRQAPGQGLEWMGGIYPGNTDTTYNQKFKGRVTMTRDTSTSTVYMELSSLRSEDTAVYYCIRYDYDRGMDYWGQGTLVTVSS
VL: DIQMTQSPSSLSASVGDRVTITCRASEDIYYRLAWYQQKPGKAPKLLISGATALETGVPSRFSGSGSGKDYTFTISSLQPEDIATYYCQHYWNIPWTFGQGTKVEIKR
notes: humanized 3C11, human IgG1 kappa
B4: 1CP-129 (antibody, human IgG1, kappa, V domains shown)
VH: B3 VH with R72A
VL: B3 VL with F73L
notes: as for B3
B5: 1CP-125 (antibody, human IgG1, kappa, V domains shown)
VH: B3 VH with R72A
VL: B3 VL
notes: as for B3
B6: 1CP-128 (antibody, human IgG1, kappa, V domains shown)
VH: B3 VH
VL: B3 VL with F73L
notes: as for B3
B7: 1CP-117 (antibody, human IgG1, kappa, V domains shown)
VH: QVQLVQSGSELKKPGASVKVSCKASGYTLTDFSMHWVRQAPGQGLEWMGWINTETGAPTYADDFKGRFVLSLDTSVSTAYLQISSLKAEDTAVYYCSRGRDYDPHFDYWGQGTLVTVSS
VL: EIVLTQSPATLSLSPGERATLSCRASQSISDFLHWYQQKPGQSPRLLIKYASQSISGIPARFSGSGSGSDFTLTISSVEPEDFAVYYCQSAHSFPYTFGQGTKLEIKR
notes: humanized 8E5, human IgG1 kappa
B8: 1CP-121 (antibody, human IgG1, kappa, V domains shown)
VH: B7 VH
VL: B7 VL with P40S
notes: as for B7

Target: T1, human CDCP1 on tumor cells
Assay: flow cytometry, MDA-MB-231 cells
Protocol: Referring to the method of Example 4, MDA-MB-231 cells were taken and subjected to digestion with 5 mM EDTA, 2×10⁴ tumor cells were added respectively per well, and 50 μL (PBS+2% FBS) were added; after blocking at room temperature with Fc blocker for 10 mins, an anti-CDCP1 humanized antibody at a final concentration of 200 nM was added. The obtained mixture was subjected to a 3-fold serial dilution across 8 concentration points, incubated at 4° C. for 30 mins, centrifuged and washed, and then a secondary antibody (PE anti-human IgG Fc Antibody, Biolegend, 410708) was added, then detection was performed using a flow cytometer. Geo-MFI (geometric mean fluorescence signal value) was used as the preliminary signal of antibody-cell binding, curve fitting was performed using graphpad, and the binding capacity of antibody to cells was calculated.

EC50 [nM] | Binder
2.82 | B1
2.5 | B2
0.38 | B3
0.34 | B4
0.95 | B5
0.32 | B6
1.3 | B7

Binder | EC50 [nM]
B8 | 1.37
